Reference: PMC9727157, “The transmembrane domains mediate oligomerization of the human ZIP4 transporter in vivo” (Scientific Reports, 2022)

Target: the molecule itself
Experiment: fluorescence correlation spectroscopy (FCS) with molecular brightness analysis; living transfected HEK293 cells, upper plasma membrane centred in the confocal volume; 23 °C, HEPES-buffered MEM without phenol red; 100 s (10 x 10 s); brightness compared with CD-86/eGFP (monomer) and CD-86/eGFP/eGFP (tandem, dimer) controls

Row | Protein | stoichiometry N
1 | truncated human ZIP4 (without ECD) tagged with eGFP (truncated hZIP4/eGFP) (domain or fragment, UniProt Q6P5W5 328-647, looked up, human ZIP4 zinc transporter without the N-terminal extracellular domain (residues 1-327 removed); the eight transmembrane domains, residues 328-647; also called eGFP-tagged truncated ZIP4; hZIP4 lacking the ECD; source: HEK293 cells (HEK293T, ATCC CRL-3216), transiently transfected with 50 ng pcDNA3.1 plasmid, measured in living cells; not shown: eGFP (monomeric, A206K), C-terminal, kept) LYGSLATLLICLCAVFGLLLLTCTGCRGVTHYILQTFLSLAVGAVTGDAVLHLTPKVLGLHTHSEEGLSPQPTWRLLAMLAGLYAFFLFENLFNLLLPRDPEDLEDGPCGHSSHSHGGHSHGVSLQLAPSELRQPKPPHEGSRADLVAEESPELLNPEPRRLSPELRLLPYMITLGDAVHNFADGLAVGAAFASSWKTGLATSLAVFCHELPHELGDFAALLHAGLSVRQALLLNLASALTAFAGLYVALAVGVSEESEAWILAVATGLFLYVALCDMLPAMLKVRDPRPWLLFLLHNVGLLGGWTVLLLLSLYEDDITF | 2
2 | full-length human ZIP4 tagged with eGFP (hZIP4/eGFP) (natural protein, UniProt Q6P5W5 23-647, looked up, human ZIP4 zinc transporter, full-length gene, residues 1-647; also called full-length hZIP4/eGFP; full-hZIP4/eGFP; source: HEK293 cells (HEK293T, ATCC CRL-3216), transiently transfected with 50 ng pcDNA3.1 plasmid, measured in living cells; not shown: eGFP (monomeric, A206K), C-terminal, kept) SPPAGLLSLLTSGQGALDQEALGGLLNTLADRVHCANGPCGKCLSVEDALGLGEPEGSGLPPGPVLEARYVARLSAAAVLYLSNPEGTCEDARAGLWASHADHLLALLESPKALTPGLSWLLQRMQARAAGQTPKMACVDIPQLLEEAVGAGAPGSAGGVLAALLDHVRSGSCFHALPSPQYFVDFVFQQHSSEVPMTLAELSALMQRLGVGREAHSDHSHRHRGASSRDPVPLISSSNSSSVWDTVCLSARDVMAAYGLSEQAGVTPEAWAQLSPALLQQQLSGACTSQSRPPVQDQLSQSERYLYGSLATLLICLCAVFGLLLLTCTGCRGVTHYILQTFLSLAVGAVTGDAVLHLTPKVLGLHTHSEEGLSPQPTWRLLAMLAGLYAFFLFENLFNLLLPRDPEDLEDGPCGHSSHSHGGHSHGVSLQLAPSELRQPKPPHEGSRADLVAEESPELLNPEPRRLSPELRLLPYMITLGDAVHNFADGLAVGAAFASSWKTGLATSLAVFCHELPHELGDFAALLHAGLSVRQALLLNLASALTAFAGLYVALAVGVSEESEAWILAVATGLFLYVALCDMLPAMLKVRDPRPWLLFLLHNVGLLGGWTVLLLLSLYEDDITF | 2
